Earlier results as cited in paper PMC6238587.

Target: PDI (Homo sapiens) (UniProt P07237)
Experiment: surface plasmon resonance
Details: cited from earlier work

PDI (Homo sapiens), sequence (P07237 18-508): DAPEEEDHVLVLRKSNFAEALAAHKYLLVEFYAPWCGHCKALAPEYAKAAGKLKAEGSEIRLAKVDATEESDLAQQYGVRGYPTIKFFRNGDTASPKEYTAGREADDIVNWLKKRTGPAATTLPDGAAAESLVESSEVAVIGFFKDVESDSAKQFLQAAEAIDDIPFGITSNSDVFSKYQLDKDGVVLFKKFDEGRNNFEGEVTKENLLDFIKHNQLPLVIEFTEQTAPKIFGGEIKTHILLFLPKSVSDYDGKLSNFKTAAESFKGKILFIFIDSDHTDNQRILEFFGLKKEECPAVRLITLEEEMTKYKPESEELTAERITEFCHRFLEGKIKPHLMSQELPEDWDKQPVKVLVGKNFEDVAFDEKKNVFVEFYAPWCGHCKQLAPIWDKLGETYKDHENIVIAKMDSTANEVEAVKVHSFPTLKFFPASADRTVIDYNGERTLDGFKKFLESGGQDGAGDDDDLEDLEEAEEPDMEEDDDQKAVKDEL

Ero1α (from UniProt Q96HE7)
Kd: 2.1 µM
